Assay results taken from article doi:10.1101/2022.08.26.505460.
pKd: −log10 of the molar value.

Target: FN3^WDR5-cpYFP fusion protein

Substance: WD40-repeat protein 5 (WDR5) (from UniProt P61964 31-334) (natural protein)
- pKd: 6.14
